Experimental data as given in paper PMC11187117, “Structure of the endosomal CORVET tethering complex” (Nature Communications, 2024).

How the values were obtained:
[1] = molecular target: T1, Vps16 (CORVET and HOPS subunit, SNARE-binding module) (yeast, UniProt Q03308 1-798); assay: cryo-EM structure; single-particle cryo-EM of the hexameric CORVET co-expressed in yeast and purified by 3xFLAG on Vps8 and SEC; about 0.8 mg/ml; consensus map 4.6 Å, local refinements to 3.8 Å; conditions: both partners purified
T1 construct: Vps16, yeast, subunit shared by CORVET and HOPS
T1 sequence: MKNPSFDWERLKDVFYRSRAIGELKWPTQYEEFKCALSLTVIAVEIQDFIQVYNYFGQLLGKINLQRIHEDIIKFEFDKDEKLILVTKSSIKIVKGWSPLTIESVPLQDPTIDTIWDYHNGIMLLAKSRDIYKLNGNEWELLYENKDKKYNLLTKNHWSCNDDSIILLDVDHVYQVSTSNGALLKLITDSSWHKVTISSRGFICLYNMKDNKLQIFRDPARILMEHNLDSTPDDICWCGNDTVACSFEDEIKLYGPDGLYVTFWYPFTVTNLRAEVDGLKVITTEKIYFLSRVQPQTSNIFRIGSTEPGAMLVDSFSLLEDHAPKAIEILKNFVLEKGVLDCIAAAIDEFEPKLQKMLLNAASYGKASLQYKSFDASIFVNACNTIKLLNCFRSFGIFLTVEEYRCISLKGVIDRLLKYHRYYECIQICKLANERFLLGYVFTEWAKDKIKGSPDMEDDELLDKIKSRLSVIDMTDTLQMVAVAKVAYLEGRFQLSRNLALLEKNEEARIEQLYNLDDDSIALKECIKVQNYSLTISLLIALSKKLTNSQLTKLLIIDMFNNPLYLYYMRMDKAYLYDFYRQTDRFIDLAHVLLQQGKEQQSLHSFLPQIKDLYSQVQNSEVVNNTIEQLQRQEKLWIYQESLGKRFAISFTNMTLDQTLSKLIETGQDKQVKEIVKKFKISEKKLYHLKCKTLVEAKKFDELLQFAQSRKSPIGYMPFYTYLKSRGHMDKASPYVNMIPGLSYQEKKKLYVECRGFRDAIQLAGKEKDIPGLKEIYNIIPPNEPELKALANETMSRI

[2] = molecular target: T2, Vps18 (CORVET and HOPS core subunit) (yeast, UniProt P27801 1-918); assay: as above; conditions: both partners purified
T2 construct: Vps18, yeast, core subunit shared by CORVET and HOPS
T2 sequence: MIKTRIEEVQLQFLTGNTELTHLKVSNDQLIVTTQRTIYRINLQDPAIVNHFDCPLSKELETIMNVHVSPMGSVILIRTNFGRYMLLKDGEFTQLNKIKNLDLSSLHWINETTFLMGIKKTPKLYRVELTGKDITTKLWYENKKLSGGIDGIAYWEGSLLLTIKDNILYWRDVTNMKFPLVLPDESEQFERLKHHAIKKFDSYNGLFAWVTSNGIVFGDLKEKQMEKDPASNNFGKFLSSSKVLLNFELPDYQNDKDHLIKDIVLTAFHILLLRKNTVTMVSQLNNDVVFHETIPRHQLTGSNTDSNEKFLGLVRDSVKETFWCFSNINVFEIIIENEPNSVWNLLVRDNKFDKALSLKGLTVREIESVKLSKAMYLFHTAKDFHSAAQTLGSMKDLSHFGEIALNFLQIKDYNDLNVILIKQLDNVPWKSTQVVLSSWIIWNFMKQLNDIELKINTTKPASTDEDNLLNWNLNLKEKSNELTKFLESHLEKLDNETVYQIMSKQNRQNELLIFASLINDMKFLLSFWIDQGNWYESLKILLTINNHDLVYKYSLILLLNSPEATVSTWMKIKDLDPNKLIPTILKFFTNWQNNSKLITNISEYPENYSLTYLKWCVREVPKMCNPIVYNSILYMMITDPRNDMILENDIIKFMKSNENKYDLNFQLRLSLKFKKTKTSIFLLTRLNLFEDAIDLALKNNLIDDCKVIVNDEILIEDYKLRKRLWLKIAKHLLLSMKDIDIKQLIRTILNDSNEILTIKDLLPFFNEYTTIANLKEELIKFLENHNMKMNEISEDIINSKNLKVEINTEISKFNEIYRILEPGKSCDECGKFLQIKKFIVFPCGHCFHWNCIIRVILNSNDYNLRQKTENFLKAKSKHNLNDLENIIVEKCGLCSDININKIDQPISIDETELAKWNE

binding result [1]: binds
binding result [2]: binds
B1: Vps33 (CORVET and HOPS subunit, SM protein of the SNARE-binding module) (natural protein, yeast)
chain: MNRFWNTKKFSLTNADGLCATLNEISQNDEVLVVQPSVLPVLNSLLTFQDLTQSTPVRKITLLDDQLSDDLPSALGSVPQMDLIFLIDVRTSLRLPPQLLDAAQKHNLSSLHIIYCRWKPSFQNTLEDTEQWQKDGFDLNSKKTHFPNVIESQLKELSNEYTLYPWDLLPFPQIDENVLLTHSLYNMENVNMYYPNLRSLQSATESILVDDMVNSLQSLIFETNSIITNVVSIGNLSKRCSHLLKKRIDEHQTENDLFIKGTLYGERTNCGLEMDLIILERNTDPITPLLTQLTYAGILDDLYEFNSGIKIKEKDMNFNYKEDKIWNDLKFLNFGSIGPQLNKLAKELQTQYDTRHKAESVHEIKEFVDSLGSLQQRQAFLKNHTTLSSDVLKVVETEEYGSFNKILELELEILMGNTLNNDIEDIILELQYQYEVDQKKILRLICLLSLCKNSLREKDYEYLRTFMIDSWGIEKCFQLESLAELGFFTSKTGKTDLHITTSKSTRLQKEYRYISQWFNTVPIEDEHAADKITNENDDFSEATFAYSGVVPLTMRLVQMLYDRSILFHNYSSQQPFILSREPRVSQTEDLIEQLYGDSHAIEESIWVPGTITKKINASIKSNNRRSIDGSNGTFHAAEDIALVVFLGGVTMGEIAIMKHLQKILGKKGINKRFIIIADGLINGTRIMNSIS
notes: Vps33, yeast, subunit shared by CORVET and HOPS
